{
  "source": "patent US20220119536A1",
  "biological_target": "human VEGF-A (human) (UniProt P15692)",
  "sequence (P15692 other isoform, or with tags, fused parts or gaps limits assumed)": "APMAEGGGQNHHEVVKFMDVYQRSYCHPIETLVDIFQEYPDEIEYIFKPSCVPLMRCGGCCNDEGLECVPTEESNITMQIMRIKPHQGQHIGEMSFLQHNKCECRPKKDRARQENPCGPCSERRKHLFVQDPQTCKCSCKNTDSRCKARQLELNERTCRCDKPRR",
  "experiment": "cell-based or functional assay",
  "data": [
    {"substance": "EYLEA® (aflibercept) (Fc fusion)", "values": [
      {"measurement": "ERK1/2 phosphorylation: Bottom plateau (AlphaLISA counts) (AlphaLISA counts)", "result": 21700},
      {"measurement": "ERK1/2 phosphorylation: Top plateau (AlphaLISA counts) (AlphaLISA counts)", "result": 109000},
      {"measurement": "HRMEC proliferation Delta (area under the curve vs. basal): Bottom plateau (arbitrary units) (arbitrary units)", "result": 13.3},
      {"measurement": "HRMEC proliferation Delta (area under the curve vs. basal): IC50 (pM)", "result": 171, "unit": "pM"},
      {"measurement": "HRMEC proliferation Delta (area under the curve vs. basal): LogIC50", "result": -9.77},
      {"measurement": "HRMEC proliferation Delta (area under the curve vs. basal): Top plateau (arbitrary units) (arbitrary units)", "result": 129},
      {"measurement": "IC50, inhibition of VEGF-induced p38 MAPK phosphorylation", "result": 0.74, "unit": "nM"},
      {"measurement": "Src phosphorylation (Y419): Bottom plateau (AlphaLISA counts) (AlphaLISA counts)", "result": 2210},
      {"measurement": "Src phosphorylation (Y419): IC50", "result": 0.933, "unit": "nM"},
      {"measurement": "Src phosphorylation (Y419): LogIC50", "result": -9.37},
      {"measurement": "Src phosphorylation (Y419): Top plateau (AlphaLISA counts) (AlphaLISA counts)", "result": 3420},
      {"measurement": "concentration for full inhibition of VEGF-induced HRMEC proliferation", "result": "> 16", "unit": "nM"},
      {"measurement": "p38-MAPK phosphorylation (T180/Y182): Bottom plateau (AlphaLISA counts) (AlphaLISA counts)", "result": 8890},
      {"measurement": "p38-MAPK phosphorylation (T180/Y182): IC50", "result": 0.748, "unit": "nM"},
      {"measurement": "p38-MAPK phosphorylation (T180/Y182): LogIC50", "result": -9.13},
      {"measurement": "p38-MAPK phosphorylation (T180/Y182): Top plateau (AlphaLISA counts) (AlphaLISA counts)", "result": 23100}
    ]}
  ]
}
